Columns and labels:
[1] = test system: PKGIα (analogue-sensitive C42S/M438G), cGMP-activated; assay: Chemical genetic phosphoproteomic screen, cGMP-activated PKGIα C42S/M438G versus unactivated control; format: biochemical, human PKGIα; substrates in rat heart homogenate; conditions: control = PKGIα C42S/M438G
Summary of the method: (§1)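 Substrates in rat left-ventricle homogenate (20 mg ml) are labelled by engineered Met438Gly PKGIα given a bulky N6-alkylated ATPγS analogue, either as disulfide-activated M438G (oxidized, DTT-free) or as cGMP-activated C42S/M438G. Covalent capture and LC–MS/MS identify sites relative to unactivated kinase.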

[2] = test system: PKGIα (analogue-sensitive M438G), disulfide-activated; assay: Chemical genetic phosphoproteomic screen, disulfide-activated PKGIα M438G versus unactivated control; format: biochemical, human PKGIα; substrates in rat heart homogenate; conditions: control = PKGIα C42S/M438G
Summary of the method: as §1

Molecule	log2 fold change cGMP vs Control [1]	log2 fold change Disulfide vs Control [2]
Atp5a1 pS76 (protein, UniProt P15999 44-553, looked up, phosphorylated at S76) ATP synthase F(1) complex …: QKTGTAEMSSILEERILGADTSVDLEETGRVLSIGDGIARVHGLRNVQAEEMVEFSSGLKGMSLNLEPDNVGVVVFGNDKLIKEGDIVKRTGAIVDVPVGDELLGRVVDALGNAIDGKGPVGSKIRRRVGLKAPGIIPRISVREPMQTGIKAVDSLVPIGRGQRELIIGDRQTGKTSIAIDTIINQKRFNDGTDEKKKLYCIYVAIGQKRSTVAQLVKRLTDADAMKYTIVVSATASDAAPLQYLAPYSGCSMGEYFRDNGKHALIIYDDLSKQAVAYRQMSLLLRRPPGREAYPGDVFYLHSRLLERAAKMNDSFGGGSLTALPVIETQAGDVSAYIPTNVISITDGQIFLETELFYKGIRPAINVGLSVSRVGSAAQTRAMKQVAGTMKLELAQYREVAAFAQFGSDLDAATQQLLSRGVRLTELLKQGQYSPMAIEEQVAVIYAGVRGYLDKLEPSKITKFESAFLSHVVSQHQSLLGNIRSDGKISEQSDAKLKEIVTNFLAGFEP	2.023	1.372
Clasp2 pS436 (protein, UniProt Q99JD4 1-1286, looked up, phosphorylated at S436) CLIP-associating protein 2: MRRLICKRICDYKSFDDEESVDGNRPSSAASAFKVPAPKTPGNPVNSARKPGSAGGPKAGGTSKEGGAGAVDEDDFIKAFTDVPSIQIYSSRELEETLNKIREILSDDKHDWDQRANALKKIRSLLVAGAAQYDCFFQHLRLLDGALKLSAKDLRSQVVREACITVAHLSTVLGNKFDHGAEAIVPTLFNLVPNSAKVMATSGCAAIRFIIRHTHVPRLIPLITSNCTSKSVPVRRRSFEFLDLLLQEWQTHSLERHAAVLVETIKKGIHDADAEARVEARKTYMGLRNHFPGEAETLYNSLEPSYQKSLQTYLKSSGSVASLPQSDRSSSSSQESLNRPFSSKWSTANPSAVAGRVSVGGSKASPLPGSLQRSRSDIDVNAAAGAKAHHAAGQAVRSGRLGAGALNPGSYASLEDTSDKMDGTASEDGRVRAKLSTPLVAVGNAKTDSRGRSRTKMVSQSQPGSRSGSPGRVLTTTALSTVSSGAQRILVNSASAQKRSKIPRSQGCSREASPSRLSVARSSRIPRPSVSQGCSREASRESSRDTSPVRSFQPLGPGYGMSQSSRLSSSVSAMRVLNTGSDVEEAVADALLLGDIRTKKKPARRRYESYGMHSDDDANSDASSACSERSYSSRNGSIPTYMRQTEDVAEVLNRCASSNWSERKEGLLGLQNLLKNQRTLSRVELKRLCEIFTRMFADPHGKVFSMFLETLVDFIQVHKDDLQDWLFVLLTQLLKKMGADLLGSVQAKVQKALDVTRESFPNDLQFNILMRFTVDQTQTPSLKVKVAILKYIETLAKQMDPGDFINSSETRLAVSRVITWTTEPKSSDVRKAAQSVLISLFELNTPEFTMLLGALPKTFQDGATKLLHNHLRNTGNGTQSSMGSPLTRPTPRSPANWSSPLTSPTNTSQNTLSPSAFDYDTENMNSEDIYSSLRGVTEAIQNFSFRSQEDMSEPLKRDPKKEDGDTVCSGPGMSDPRAGGDAPDSSQPALDNKASLLHSVPLHSSPRSRDYNPYNYSDSISPFNKSALKEAMFDDDADQFPDDLSLDHSDLVAELLKELSNHNERIEERKIALYELMKLTQEESFSVWDEHFKTILLLLLETLGDKEPTIRALALKVLKEILRHQPARFKNYAELTVMKTLEAHKDPHKEVVRSAEEAASVLATSISPEQCIKVLCPIIQTADYPINLAAIKMQTKVIERVSKETLNLLLPEIMPGLIQGYDNSESSVRKACVFCLVAVHAVIGDELKPHLSQLTGSKMKLLNLYIKRAQTGSAGADPTTDVSGQS	1.792	0.8616
Dync1li1 pT408 (protein, UniProt Q9QXU8 1-523, looked up, phosphorylated at T408) Cytoplasmic dynein 1 light …: MAAVGRVGSFGSSPPGLASTYASGPLANELASGSGGPAAGDDEDGQNLWSRILREVSTRSRSKLPTGKNVLLLGEDGAGKTSLIRRIQGIEEYKKGRGLEYLYLNVHDEDRDDQTRCNVWILDGDLYHKGLLKFSLDALSLRDTLVMLVVDMSKPWTALDSLQKWASVVREHVDKLKIPPEEMKEMEQKLIRDFQEYVEPGEDFPASPQRRATAAQEDRDDSVVLPLGADTLTHNLGLPVLVVCTKCDAISVLEKEHDYRDEHFDFIQSHIRKFCLQYGAALIYTSVKENKNIDLVYKYIVQKLYGFPYKIPAVVVEKDAVFIPAGWDNDKKIGILHENFQTLKIEDNFEDIITKPPVRKFVHEKEIMAEDDQVFLMKLQSLLAKQPPTAAGRPVDASPRVPGGSPRTPNRSVSSNVASVSPIPAGSKKIDPNMKAGATSEGVLANFFNSLLSKKTGSPGGPGVGGSPGGGAAGASTSLPPSAKKSGQKPVLSDVHAELDRITRKPASVSPTTPPSPTEGEAS	3.758	1.949
Dync1li1 pS412 (protein, UniProt Q8R1Q8 1-523, looked up, phosphorylated S412) Cytoplasmic dynein 1 light …: MAAVGRVGSFGSSPPGLASTYASGPLANELASGSGGPAAGDDEDGQNLWSCILSEVSTRSRSKLPTGKNVLLLGEDGAGKTSLIRRIQGIEEYKKGRGLEYLYLNVHDEDRDDQTRCNVWILDGDLYHKGLLKFSLDALSLRDTLVMLVVDMSKPWTALDSLQKWASVVREHVDKLKIPPEEMKEMEQKLIRDFQEYVEPGEDFPASPQRRTTGAQEDRGDSVVLPLGADTLTHNLGLPVLVVCTKCDAISVLEKEHDYRDEHFDFIQSHIRKFCLQYGAALIYTSVKENKNIDLVYKYIVQKLYGFPYKIPAVVVEKDAVFIPAGWDNDKKIGILHENFQTLKVEDNFEDIITKPPVRKFVHEKEIMAEDDQVFLMKLQSLLAKQPPTAAGRPVDASPRVPGGSPRTPNRSVSSNVASVSPIPAGSKKIDPNMKAGATSEGVLANFFNSLLSKKTGSPGGPGVGGSPGGGAAGASPSLPPSAKKSGQKPVLSDVHAELDRITRKPASVSPTTPTSPTEGEAS	4.149	1.658
Gpsm1 pS567 (protein, UniProt Q9R080 1-673, looked up, phosphorylated at S567) G-protein-signaling modulator …: MASPAPPAAEELPGPAARRLYSRMEASCLELALEGERLCKAGDFKAGVAFFEAAVQVGTEDLKTLSAIYSQLGNAYFYLKEYARALQFHKHDLLLARTIGDRMGEAKASGNLGNTLKVLGRFDEAIVCCQRHLDIAQEQGDKVGEARALYNIGNVYHAKGKQLSWNAAQDPGHLPPDVRETLHRASEFYERNLSLVKELGDRAAQGRAYGNLGNTHYLLGNFTEATTFHKERLAIAKEFGDKAAERRAYSNLGNAHIFLGRFDVAAEHYKKTLQLSRQIRDQAVEAQACYSLGNTYTLLQDYERAAEYHLRHLVIAQELADRVGEGRACWSLGNAYVSMGSPAQALTFAKKHLQISQEIGDRNGELTARMNIAHLQLALGRLTSPAAAEKPDLAGYEAQGARPKRTQRLSAETWDLLRLPLDREQNGETHHTGDWRGPSRDSLPLPMRSRKYQEGPDAIERRPREGSHSPLDSADVRVQVPRTGIPRAPSSDEECFFDLLSKFQSSRMDDQRCPLEEGQAGAAEATAAPTLEERAAQPSVTASPQTEEFFDLIASSQSRRLDDQRASVGSLPGLRITLNNVGHLRGDGDPQEPGDEFFNMLIKYQSSRIDDQRCPPPDVLPRGPTMPDEDFFSLIQRVQAKRMDEQRVDLAGSPDQEASGLPDPRQQCPPGAS	2.926	1.042
Eml1 pS108 (protein, UniProt Q4V8C3 1-814, looked up, phosphorylated at S108) Echinoderm …: MEDGFSSYSSLYDTSSLLQFCNDDSASAASSMEISDRIASLEQRVQMQEDDIQLLKSALADVVRRLNITEEQQAVLNRKGPTKARPLGQTLPLRTTVNNGTVLPKKPSASLPSPSGSRKEMVVPVTKSINRTSSSERVSPGGRRESSGDSKGSRNRTGSTSSSSSGKKNSESKPKEPTFSPEEGYVKMFLRGRPVTMYMPKDQVDSYSLEAKAELPTKRLKLEWVYGYRGRDCRNNLYLLPTGETVYFIASVVVLYNVEEQLQRHYAGHNDDVKCLAVHPDRITIATGQVAGTSKDGKQLPPHVRIWDSVTLNTLHVIGIGFFDRAVTCIAFSKSNGGSHLCAVDDSNDHVLSVWDWQREERLADVKCSNEAVFAADFHPTDTNIIVTCGKSHLYFWTLEGNSLNKKQGLFEKQEKPKFVLCVTFSENGDTITGDSSGNILVWGKGTNRISYAVQGAHEGGIFALCMLRDGTLVSGGGKDRRLISWNGNYQKLHKAEIPEQFGPIRTVAEGKGNVILIGTTRNFVLQGTLTGDFTPITQGHTDELWGLAIHASKPQFLTCGHDKHATLWDAVGHRPVWDKIIEDPAQSSGFHPSGSVVAVGTLTGRWFVFDTETKDLVTVHTDGNEQLSVMRYSPDGNFLAIGSHDNCIYIYGVSDNGRKYTRVGKCSGHSSFITHLDWSVNSQFLVSNSGDYEILYWVPSACKQVVSVETTRDIEWATYTCTLGFHVFGVWPEGSDGTDINAVCRAHEKKLLSTGDDFGKVHLFSYPCSQFRAPSHIYSGHSSHVTNVDFLCEDSHLISTGGKDTSIMQWRVI	3.948	1.496
Crip2 pS114 (protein, UniProt P36201 1-208, looked up, phosphorylated at S114) Cysteine-rich protein 2: MASKCPKCDKTVYFAEKVSSLGKDWHKFCLKCERCNKTLTPGGHAEHDGKPFCHKPCYATLFGPKGVNIGGAGSYIYEKPPTEAPQVTGPIEVPVVRTEERKTSGPPKGPSKASSVTTFTGEPNMCPRCNKRVYFAEKVTSLGKDWHRPCLRCERCSKTLTPGGHAEHDGQPYCHKPCYGILFGPKGVNTGAVGSYIYDKDPEGTVQP	3.456	1.062
Crip2 pS19 (protein, UniProt P36201 1-208, looked up, phosphorylated at S19) Cysteine-rich protein 2: MASKCPKCDKTVYFAEKVSSLGKDWHKFCLKCERCNKTLTPGGHAEHDGKPFCHKPCYATLFGPKGVNIGGAGSYIYEKPPTEAPQVTGPIEVPVVRTEERKTSGPPKGPSKASSVTTFTGEPNMCPRCNKRVYFAEKVTSLGKDWHRPCLRCERCSKTLTPGGHAEHDGQPYCHKPCYGILFGPKGVNTGAVGSYIYDKDPEGTVQP	2.804	1.661
Fhl2 pS255 (protein, UniProt O70433 1-279, looked up, phosphorylated S255) Four and a half LIM domains …: MTERFDCHHCNESLYGKKYILKEENPHCVACFEELYANTCEECGTPIGCDCKDLSYKDRHWHEGCFHCSRCGSSLVDKPFAAKEEQLLCTDCYSNEYSSKCQECKKTIMPGTRKMEYKGSSWHETCFTCQRCQQPIGTKSFIPKENQNFCVPCYEKQYALQCVQCKKPITTGGVTYREQPWHKECFVCTACKKQLSGQRFTARDEFPYCLTCFCDLYAKKCAGCTNPISGLGGTKYISFEERQWHNDCFNCKKCSLSLVGRGFLTERDDILCPDCGKDI	3.732	1.662
